Our source for the Kd values is US20160024194A1.

The target in assay [1] is human fibronectin (purified; plasma fibronectin used in the ELISA assays; purified Fibronectin protein from BIOPUR AG in Biacore) (human) (UniProt P02751). Nature of the assay: SPR, Biacore 3000, antibody captured on anti-mouse antibody on CM-5 chip, fibronectin in solution, 1:1 Langmuir fit, two experiments; lower end of the range from the two independent experiments; the text does not say which experiment. In general terms: In SPR one partner is held on a chip, and binding of the other changes the refractive index at the surface.

Assay [2] has the same target. Put plainly: SPR, Biacore 3000, antibody captured on anti-mouse antibody on CM-5 chip, fibronectin in solution, 1:1 Langmuir fit, two experiments; upper end of the range from the two independent experiments; the text does not say which experiment.
The target is the same in assay [3]. Put plainly: Biacore 3000, 7A8 captured on anti-mouse antibody, fibronectin injected at 15 nM-500 nM, 1:1 Langmuir fit.
Assay [4] has the same target. Nature of the assay: Biacore 3000, 7A8 captured on anti-mouse antibody, fibronectin injected at 20 nM-100 nM, 1:1 Langmuir fit.

B1: 7A8 monoclonal antibody produced by hybridoma PTA-120971 (antibody, V domains shown)
VH: QVQLRESEPGLVAPSRSLSITCTVSGFSLTSYAVSWVRQPPGKGLEWLGVIWTGGGTNYNSALKSRLSISKDNSKNQVFLKMNSLQTDDTARYYCARYSNLYYAMDYWGQGTSVTVSS
VL: DIVMTQSQKFMSTSVGERVSITCKASQNVGTNVAWYQQKAGQSLELLIYGASNRHTGVPDRFTGSGSGTDFTLTITNVQSEDMTNYFCEQYRSYPLTFGGGSKLEIK
What is called Kd is the free concentration of one partner at which half of the binding sites on the other are occupied at equilibrium, for simple one-to-one binding. High values mean a looser complex, low ones a tighter complex. Take B1: the Kd was determined as 2.8 nM in assay [1], 7.26 nM in assay [2], 2.8 nM in assay [3] and 7.26 nM in assay [4].
